The source of these data is PMC9340540, “A heterotypic assembly mechanism regulates CHIP E3 ligase activity” (The EMBO Journal, 2022).

A value given as a limit tells only on which side of the number the result lay.

In experiment [1] the target is T1, M1 linked linear ubiquitin (di-Ub) (UniProt P0CG48 1-76; P0CG48 1-76).
T1 construct: ubiquitin, first (distal) unit of the M1-linked dimer; ubiquitin, second (proximal) unit, joined by its M1 to G76 of the first unit; also called linear di-Ub; M1 diUb conjugates; source: bought: UbiQ (UbiQ-L01)
Put plainly: SPR; Biacore S200, 25°C; His-tagged UFD-2 or His-tagged Ufd2p immobilised on NTA chips at 20 μg/ml; single-cycle kinetics with M1 diUb at 0, 100, 200, 500, 1,000 and 2,000 nM; 10 mM HEPES, 150 mM NaCl, 0.05% Tween 20, 0.1% BSA, 50 μM EDTA, pH 8.0. The conditions noted are these: both partners purified.

For experiment [2], the target named is CHN-1 (C. elegans). Put plainly: cell-based or functional assay.
Chain of CHN-1 (C. elegans) (main, as listed by the source): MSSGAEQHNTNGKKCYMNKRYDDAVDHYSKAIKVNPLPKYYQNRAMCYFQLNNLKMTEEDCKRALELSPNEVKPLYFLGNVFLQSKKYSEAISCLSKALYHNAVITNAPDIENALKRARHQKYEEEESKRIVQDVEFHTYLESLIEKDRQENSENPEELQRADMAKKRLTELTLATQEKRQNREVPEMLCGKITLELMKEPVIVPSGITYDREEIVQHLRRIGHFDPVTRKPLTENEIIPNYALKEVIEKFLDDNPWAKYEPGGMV

B1: 6xHis::Ufd2p (enzyme, S. cerevisiae, UniProt P54860 1-961, looked up)
chain: MTAIEDILQITTDPSDTRGYSLLKSEEVPQGSTLGVDFIDTLLLYQLTENEKLDKPFEYLNDCFRRNQQQKRITKNKPNAESLHSTFQEIDRLVIGYGVVALQIENFCMNGAFINYITGIVSNVNSYTDFLSQIIQRAILEGTALDLLNAVFPTLLEYCNKHVSHFDLNESVIYNNVLTIFELFVTFKPIAEIFTKIDGFFADYSCKPQDFERKTILGPILSLSPIEAAVAIRNYGDNLLRSKQQTAMIHESLQAEHKVVIDRLFFIVDKLVRGSLNSRTDMISYFAHIANKNHLRRADHPPFKELSSNGFMSNITLLLVRFSQPFLDISYKKIDKIDANYFNNPSLFIDLSGETRLNSDFKEADAFYDKNRKTADSKPNFISDCFFLTLTYLHYGLGGTLSFEEKMGSEIKALKEEIEKVKKIAANHDVFARFITAQLSKMEKALKTTESLRFALQGFFAHRSLQLEVFDFICGASTFLIRVVDPEHEFPFKQIKLPLIPDQIGVENVDNADFLRAHAPVPFKYYPEFVVEGPVNYSLYISKYQTSPIFRNPRLGSFVEFTTMVLRCPELVSNPHLKGKLVQLLSVGAMPLTDNSPGFMMDIFEHDELVNKNLLYALLDFYVIVEKTGSSSQFYDKFNSRYSISIILEELYYKIPSYKNQLIWQSQNNADFFVRFVARMLNDLTFLLDEGLSNLAEVHNIQNELDNRARGAPPTREEEDKELQTRLASASRQAKSSCGLADKSMKLFEIYSKDIPAAFVTPEIVYRLASMLNYNLESLVGPKCGELKVKDPQSYSFNPKDLLKALTTVYINLSEQSEFISAVAKDERSFNRNLFVRAVDILGRKTGLASPEFIEKLLNFANKAEEQRKADEEEDLEYGDVPDEFLDPLMYTIMKDPVILPASKMNIDRSTIKAHLLSDSTDPFNRMPLKLEDVTPNEELRQKILCFKKQKKEEAKHKASE
notes: Ufd2p, S. cerevisiae; from pET28a-6xHis::Ufd2p; The plasmid is from Liu et al (2017); also called S. cerevisiae Ufd2p; His-tagged Ufd2p; source: bacterial expression system, purified; not shown: 6xHis, N-terminal, kept
On to B1, for which the binding result in experiment [1] was “binds”.

B2: 6xHis::UFD-2^P951A (enzyme, C. elegans, UniProt Q09349 1-984, looked up)
chain: MIEDEKAGLQPMDISDASVFFFQADVESKDFLTSLFDCEGKSDDRMLRYADAIIDVQNLNFDVSPQCLQSNIAEIITKFVLLSQDGSRRGLSRSFNFIDPDIIAGCREEDAIEFLLINFVRCHHELGKSGTSNCYKKTLESTRKAVFSVFVMIQRGYLESQLRSQHASLVFTKRLLEDTVSNVFLRTLVEYLASTDECDEDAITETFNPIFGILRSGIICQRFEDNKDEIVRQILRVMNLLLSIRLPSNGPRPLSNLLVNREDFLPTPSEKIQGREFGLMSFLGPFFSYGLESSARRPNHRVFVDCEEDARKYDGSVNTEQKLYFQRMDPIRTMLHQLMLPLASDQGSRNKTLRWIATIISTNDIRTRSHYDPSDVLCDHYMTNFLSVMYMFSEKIDLSKIIVDYPFLPSSLINISKETRLKMDESGAVAFASQFADRPDEYHFSTVCFFLTIAAQRLVIPPLMNQISEYSRHLKELKHKINALKEKLNTVSGFERAEVEKKLNYETEHWKLMSRHLLCVKTQAQDPALMASSMDFVDKQMKFILNLLCDNLDLLGDDSQLPTEVSQMFCALPEYFLEDALDFYIFAISNGMKLLMERNADWISRLTVLFTQYHYIKSPFLVSKLVRVLSSIQPPLWFNVVRLRMAQENLLMCMIKFYSDFEDNGDFYEKFNVRGNIQYMLEKMEEDMFYKGKFMDMARECGAEFIRFVNMVINDATWCIDESLSGLKSIHDVEKKMANKVEWDNTDQEIRNQDLGVYEEAKRKVKGWLGTAKSNLKLLLSITVNSPEPFRTPVLGERLAAMLNHNLSQLIGSKASELKVKDPRSYGWEPREFVSLLISIYLKLNMPAFVKYIAYDERTYSPEFFHNAIECMRKNSIVGFSQLESFEHLAEDVKKEYEAKAELEEEYDDVPEEFKDPIMDAIMVDPVKLPSGHVMDRAVIERHLLSTPNNAFNRAPLSHNELSPDSELKAKIQEWICQKRNSKK
Turning to B2, the “discharge of Ub-charged UBE2D1 by CHN-1, alone or mixed with UFD-2^P951A” value in experiment [2] was no less than 2 fold.
